Results on nine molecules are retold here after US20260174875A1 (Novo Nordisk A/S, priority 2023, published 2026).

For series [1] the following is noted: endogenous hormone; cited from earlier work.
Series [2] has as its target T1, human GIP receptor (human, UniProt P48546 22-466).
T1 sequence (looked up): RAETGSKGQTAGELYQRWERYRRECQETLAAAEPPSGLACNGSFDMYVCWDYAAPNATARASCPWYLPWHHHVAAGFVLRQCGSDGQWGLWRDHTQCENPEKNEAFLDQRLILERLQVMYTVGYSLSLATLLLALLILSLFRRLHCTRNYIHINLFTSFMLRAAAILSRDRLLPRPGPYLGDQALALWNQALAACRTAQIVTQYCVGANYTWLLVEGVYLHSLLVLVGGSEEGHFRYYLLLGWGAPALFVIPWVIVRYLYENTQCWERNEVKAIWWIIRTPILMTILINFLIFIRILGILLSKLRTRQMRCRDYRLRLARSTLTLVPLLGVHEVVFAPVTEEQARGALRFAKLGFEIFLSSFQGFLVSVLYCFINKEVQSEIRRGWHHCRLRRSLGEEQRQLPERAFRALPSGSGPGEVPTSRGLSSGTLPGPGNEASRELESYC
The series can be described thus: cell-based or functional assay.

For series [3], the target named is T2, human amylin-3(a) receptor (human, UniProt P30988 25-474; O60896 24-148).
T2 sequence (looked up) 1: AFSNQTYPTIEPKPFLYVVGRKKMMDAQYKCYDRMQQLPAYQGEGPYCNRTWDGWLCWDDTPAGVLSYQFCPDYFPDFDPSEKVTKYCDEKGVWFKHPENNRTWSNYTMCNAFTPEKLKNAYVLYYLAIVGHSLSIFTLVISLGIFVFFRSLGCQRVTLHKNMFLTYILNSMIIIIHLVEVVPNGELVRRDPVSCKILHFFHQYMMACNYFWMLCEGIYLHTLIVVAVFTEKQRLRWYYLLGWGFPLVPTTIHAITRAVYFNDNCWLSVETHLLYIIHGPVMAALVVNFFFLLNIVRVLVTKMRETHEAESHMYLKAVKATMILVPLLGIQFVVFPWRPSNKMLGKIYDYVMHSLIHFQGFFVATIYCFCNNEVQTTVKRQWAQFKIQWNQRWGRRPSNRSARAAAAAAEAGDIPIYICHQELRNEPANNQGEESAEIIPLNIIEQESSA
T2 sequence (looked up) 2: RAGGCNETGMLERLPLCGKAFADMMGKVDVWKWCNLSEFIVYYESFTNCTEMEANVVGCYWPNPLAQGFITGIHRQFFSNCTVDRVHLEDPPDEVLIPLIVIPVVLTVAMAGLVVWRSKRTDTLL
Put plainly: cell-based or functional assay.

Series [4] has as its target T3, human GLP-1 receptor (human, UniProt P43220 24-463). Put plainly: cell-based or functional assay.
In series [5] the target is T1, human GIP receptor. Put plainly: cell-based or functional assay. This is another data set of the same source.
Series [6] has as its target T2, human amylin-3(a) receptor. The series can be described thus: cell-based or functional assay. The source holds these as a separate data set.
The target of series [7] is T3, human GLP-1 receptor. Put plainly: cell-based or functional assay. This is another data set of the same source.

Numbered stars: 1 amine (or outer) side, 2 acyl side, 3 side chain; on linkers, the order of the positions; unused ones are H or OH. Square brackets hold non-standard residues; d marks the D form. Side chains are listed from the residue outwards. * marks the point of attachment. C20 diacid = O=C(O)CCCCCCCCCCCCCCCCCCC(=O)*; γGlu = O=C(O)[C@H](CCC(=O)[*:2])N[*:1]; Chem. 27 = not defined here; AEEA = NCCOCCOCC(=O)O; Aib = CC(C)(N)C(=O)O

For “Amylin (KCNTATCATQRLANFLVHSSNNFGAILSSTNVGSNTY; Islet amyloid polypeptide; UniProt P10997 34-70, looked up) ["a 37-amino acid long polypeptide hormone produced in pancreatic beta (β)-cell from where it is co-secreted with insulin"]”, in series [1], the half-life was 15 to 20 min.

B1: Compound 189 (peptide)
peptide: Y[Aib]EGTFTSDYSILLEEIAAREFIEWLLAGGPSSGAGEAPGEAPGASHLSTAQTQRLSAELHK(Chem. 27)LATLPRTETGSGSP-NH2
modifications: reading uncertain
Turning to B1, the “hGIPR Potency, no HSA, EC50 [pM]” value with human GIP receptor [2] stood at 3.18 pM. In addition, in series [3], the “hAMYR3 Potency, no HSA, EC50 [pM]” value came to 12.7 pM. The “hGLP-1R Potency, no HSA, EC50 [pM]” value in the series with human GLP-1 receptor [4] came out at 26.9 pM. In addition, the “hGIPR Potency, 1% HSA, EC50 [pM]” value in the series with human GIP receptor [5] was 9.18 pM. Further, the “hAMYR3 Potency, 1% HSA, EC50 [pM]” value in series [6] stood at 1210 pM. Moreover, the “hGLP-1R Potency, 1% HSA, EC50 [pM]” value in the series with human GLP-1 receptor [7] was determined as 81.9 pM.

B2: Compound 210 (peptide)
peptide: Y[Aib]EGTFTSDYSILLEEQAAREFIEWLLAGGPSSGAGQAPGQAPGASHLSTAQTQRLSAELHKLATLPRTETGSGSP-NH2
modifications: also: further groups not given here
With B2, the “hGIPR Potency, no HSA, EC50 [pM]” value with human GIP receptor [2] turned out to be 9.57 pM. Moreover, the “hAMYR3 Potency, no HSA, EC50 [pM]” value in series [3] was 7.28 pM. Further, the “hGLP-1R Potency, no HSA, EC50 [pM]” value with human GLP-1 receptor [4] amounted to 16.4 pM.

B3: Compound 115 (peptide)
peptide: Y[Aib]EGTFTSDYSILLEEQAAREFIEWLLAGGPSSGAGQAPGQAPGASHLSTAQTQRLSAELHK([AEEA-AEEA-γGlu-C20 diacid])LATLPRTETGSGSP-NH2
For B3, in the series with human GIP receptor [2], the “hGIPR Potency, no HSA, EC50 [pM]” value was determined as 10.3 pM. For the same molecule, the “hAMYR3 Potency, no HSA, EC50 [pM]” value in series [3] stood at 7.13 pM. The “hGLP-1R Potency, no HSA, EC50 [pM]” value with human GLP-1 receptor [4] came out at 19.4 pM. Moreover, the “hGIPR Potency, 1% HSA, EC50 [pM]” value in the series with human GIP receptor [5] worked out at 38.9 pM. In addition, the “hAMYR3 Potency, 1% HSA, EC50 [pM]” value in series [6] worked out at 551 pM. Besides, in the series with human GLP-1 receptor [7], the “hGLP-1R Potency, 1% HSA, EC50 [pM]” value was 92.9 pM.

B4: Compound 217 (peptide)
peptide: Y[Aib]EGTFTSDYSILLEEIAAREFIEWLLAGGPSSGAGQAPGEAPGASHLSTAQTQRLSAELHKLATLPRTETGSGSP-NH2
modifications: also: further groups not given here
B4: the “hGLP-1R Potency, no HSA, EC50 [pM]” value with human GLP-1 receptor [4] turned out to be 9 pM.

B5: Compound 176 (peptide)
peptide: Y[Aib]EGTFTSDYSILLEEIAAREFIEWLLAGGPSSGAGASELSTAQTQRLSAELHK(Chem. 27)LATLPRTETGSGSP-NH2
modifications: reading uncertain
Take B5: the “hGIPR Potency, no HSA, EC50 [pM]” value with human GIP receptor [2] was 3.66 pM. In series [3], the “hAMYR3 Potency, no HSA, EC50 [pM]” value was found to be 11.2 pM. Moreover, in the series with human GLP-1 receptor [4], the “hGLP-1R Potency, no HSA, EC50 [pM]” value amounted to 29.9 pM. Further, the “hGIPR Potency, 1% HSA, EC50 [pM]” value in the series with human GIP receptor [5] stood at 23.8 pM. For the same molecule, the “hAMYR3 Potency, 1% HSA, EC50 [pM]” value in series [6] was 798 pM. In addition, the “hGLP-1R Potency, 1% HSA, EC50 [pM]” value with human GLP-1 receptor [7] amounted to 178 pM.

B6: Compound 179 (peptide)
peptide: Y[Aib]EGTFTSDYSILLEEIAAREFIEWLLAGGPSSGAGASHLSTAQTQRLSAELHK(Chem. 27)LATEPRTETGSGSP-NH2
modifications: reading uncertain
Take B6: in the series with human GIP receptor [2], the “hGIPR Potency, no HSA, EC50 [pM]” value came to 4.36 pM. For the same molecule, the “hAMYR3 Potency, no HSA, EC50 [pM]” value in series [3] turned out to be 10 pM. Also, the “hGLP-1R Potency, no HSA, EC50 [pM]” value with human GLP-1 receptor [4] was 23.3 pM. Besides, the “hGIPR Potency, 1% HSA, EC50 [pM]” value with human GIP receptor [5] is 25.5 pM. The “hAMYR3 Potency, 1% HSA, EC50 [pM]” value in series [6] came out at 1350 pM. Moreover, the “hGLP-1R Potency, 1% HSA, EC50 [pM]” value in the series with human GLP-1 receptor [7] stood at 170 pM.

B7: Compound 181 (peptide)
peptide: Y[Aib]EGTFTSDYSILLEEIAAREFIEWLLAGGPSSEAGASQLSTAQTQRLSAELHK(Chem. 27)LATLPRTETGSGSP-NH2
modifications: reading uncertain
Turning to B7, the “hGIPR Potency, no HSA, EC50 [pM]” value with human GIP receptor [2] was determined as 3.25 pM. Further, the “hAMYR3 Potency, no HSA, EC50 [pM]” value in series [3] amounted to 8.46 pM. Besides, the “hGLP-1R Potency, no HSA, EC50 [pM]” value with human GLP-1 receptor [4] came out at 28.8 pM. For the same molecule, in the series with human GIP receptor [5], the “hGIPR Potency, 1% HSA, EC50 [pM]” value turned out to be 20.1 pM. Also, the “hAMYR3 Potency, 1% HSA, EC50 [pM]” value in series [6] is 1300 pM. Besides, the “hGLP-1R Potency, 1% HSA, EC50 [pM]” value with human GLP-1 receptor [7] was found to be 134 pM.

B8: Compound 183 (peptide)
peptide: Y[Aib]EGTFTSDYSK(Chem. 27)LLEEIAAREFIEWLLAGGPSSGAGASELSTAQLGRLSAELHQLATLPRTETGSGSP-NH2
modifications: reading uncertain
Regarding B8, the “hGIPR Potency, no HSA, EC50 [pM]” value in the series with human GIP receptor [2] worked out at 2 pM. Further, the “hAMYR3 Potency, no HSA, EC50 [pM]” value in series [3] was found to be 6.2 pM. In the series with human GIP receptor [5], the “hGIPR Potency, 1% HSA, EC50 [pM]” value is 71.4 pM. Moreover, the “hAMYR3 Potency, 1% HSA, EC50 [pM]” value in series [6] is 108 pM. The “hGLP-1R Potency, 1% HSA, EC50 [pM]” value with human GLP-1 receptor [7] is 744 pM.

As usually defined, the half-life is the time needed for the level to fall by half in the phase considered.
